Publication PMC4359367, “DNA binding polarity, dimerization, and ATPase ring remodeling in the CMG helicase of the eukaryotic replisome” (eLife, 2014)

B1: Cdc45 (natural protein, Drosophila melanogaster, UniProt O96989 1-575, looked up)
chain: MFVQDLRNDFYRQLVGKRILIVVNYDIDAICASRILQALFKYDHMLYTVVPIMGVTGLKRAYGEHQGDVKYVVLVNCGGCVDIVELLQPSDDVTFFICDSHRPLDVCNIYSDRQVCILGDASLEENIPAFETIFYDSEGEDEDEDESSDTEQQHDDSGAGESDQEDQAPRSRKLSRLERHEQRILKQRARRQWESERDRIMFEYTQFSYYGRSAALMVFELAWKLSKDNMDLLWWAIVGITEQLLLGKIESGAYTLELEQIQSHVSRLTNKTNDQNTMSASKITFENDLHLVLYRHWPVTESMRYSRYSSCQLKLWTLRGEKRLHELLLEMGLPLVHARQTYGAMDLVLRKEFFSMVERLAEKYDIADIVYGTFTLSYGYRSRYAAADYVYALLAIMESVKKHKTPEDCFLEASDALSRQHKQLLSAGIDQAKLLHAAVFRQVQSSLEARQVHSAGSFFYYVLQEEHAFFSYPYALGLLARFLLRGHVATSRARQASDLPLIASCPLNASEGMCLLVGIVPVREDSPRNFFGKAFEQAAQKSGVALLQDFFEPAVVQLRQSDLTRFLDSLTVLLA
notes: Cdc45, Drosophila melanogaster; also called DmCdc45; source: Hi5 cells, co-infection with baculoviruses; purified as part of the CMG (anti-FLAG agarose, Mono S, Mono Q) and in whole cell lysate

Experiments:
[1] = biological target: Cdc45/Mcm2-7/GINS (CMG) helicase (Drosophila melanogaster) (UniProt P49735); assay: negative-stain EM, reference-free 2D class averages; purified CMG with 3'-tailed DNA and ATPγS; dimeric particles compared with 2D projections of double-hexamer models in six registers
Mcm5 = biological target: T1, Mcm5 (Drosophila melanogaster, UniProt Q9VGW6 1-733); assay: negative-stain EM single-particle reconstruction; purified CMG mixed with a 20 bp duplex DNA bearing a 3' dT40 tail and 0.1 mM ATPγS, Superose 6 peak fraction, uranyl formate stain; 18 Å map; crystal structures and homology models docked; conditions: both partners purified
T1 construct: Mcm5, Drosophila melanogaster, subunit of Mcm2-7; source: Hi5 cells, co-infection with baculoviruses; purified as part of the CMG (anti-FLAG agarose, Mono S, Mono Q) and in whole cell lysate
T1 sequence (looked up): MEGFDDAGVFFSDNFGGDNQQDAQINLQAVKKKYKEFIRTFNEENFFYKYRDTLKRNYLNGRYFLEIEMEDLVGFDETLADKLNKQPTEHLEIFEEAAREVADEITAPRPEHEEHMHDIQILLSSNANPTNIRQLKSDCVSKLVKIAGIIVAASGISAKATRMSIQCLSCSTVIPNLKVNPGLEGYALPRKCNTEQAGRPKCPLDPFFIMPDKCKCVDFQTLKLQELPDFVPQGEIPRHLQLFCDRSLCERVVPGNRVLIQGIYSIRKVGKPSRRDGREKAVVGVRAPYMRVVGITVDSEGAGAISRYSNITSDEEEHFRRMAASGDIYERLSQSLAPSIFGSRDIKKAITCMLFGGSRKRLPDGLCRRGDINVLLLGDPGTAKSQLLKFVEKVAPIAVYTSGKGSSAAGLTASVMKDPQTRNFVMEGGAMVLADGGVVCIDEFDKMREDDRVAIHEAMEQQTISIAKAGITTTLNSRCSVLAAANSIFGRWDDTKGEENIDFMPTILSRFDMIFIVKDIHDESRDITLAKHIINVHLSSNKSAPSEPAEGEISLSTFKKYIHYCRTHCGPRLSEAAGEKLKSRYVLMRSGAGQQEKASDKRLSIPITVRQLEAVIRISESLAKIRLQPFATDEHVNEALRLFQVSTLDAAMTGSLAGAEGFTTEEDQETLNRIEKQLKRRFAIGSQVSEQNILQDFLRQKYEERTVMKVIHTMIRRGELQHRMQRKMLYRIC

Mcm2 = biological target: T2, Mcm2 (Drosophila melanogaster, UniProt P49735 1-887); assay: as above; conditions: both partners purified
T2 construct: Mcm2, Drosophila melanogaster, subunit of Mcm2-7; source: Hi5 cells, co-infection with baculoviruses; purified as part of the CMG (anti-FLAG agarose, Mono S, Mono Q) and in whole cell lysate
T2 sequence (looked up): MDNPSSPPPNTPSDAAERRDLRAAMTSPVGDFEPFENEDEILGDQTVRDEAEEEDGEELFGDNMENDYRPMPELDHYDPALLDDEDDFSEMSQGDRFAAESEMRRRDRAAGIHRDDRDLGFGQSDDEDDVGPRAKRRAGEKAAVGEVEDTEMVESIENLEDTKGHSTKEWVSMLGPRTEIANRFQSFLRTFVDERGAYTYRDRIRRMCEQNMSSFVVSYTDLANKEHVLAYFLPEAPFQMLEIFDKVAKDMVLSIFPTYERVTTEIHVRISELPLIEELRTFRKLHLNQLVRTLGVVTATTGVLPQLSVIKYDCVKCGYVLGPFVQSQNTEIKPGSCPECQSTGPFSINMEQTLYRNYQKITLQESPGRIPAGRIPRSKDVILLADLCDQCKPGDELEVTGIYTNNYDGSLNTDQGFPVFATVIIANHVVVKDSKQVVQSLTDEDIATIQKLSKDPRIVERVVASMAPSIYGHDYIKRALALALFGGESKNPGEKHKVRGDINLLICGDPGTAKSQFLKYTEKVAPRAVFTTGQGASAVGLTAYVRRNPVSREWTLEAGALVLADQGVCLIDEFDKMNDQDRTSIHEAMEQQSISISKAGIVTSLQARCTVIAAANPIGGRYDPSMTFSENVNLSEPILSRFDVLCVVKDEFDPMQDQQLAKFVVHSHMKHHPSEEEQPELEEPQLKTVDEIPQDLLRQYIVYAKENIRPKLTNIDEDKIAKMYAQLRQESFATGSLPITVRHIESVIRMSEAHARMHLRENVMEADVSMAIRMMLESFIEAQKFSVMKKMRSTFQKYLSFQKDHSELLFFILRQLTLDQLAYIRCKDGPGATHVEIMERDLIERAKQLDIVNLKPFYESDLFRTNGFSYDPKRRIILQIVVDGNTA

Cdc45 = biological target: B1; assay: as above; conditions: both partners purified

Molecule: Cdc45/Mcm2-7/GINS (CMG) helicase (from UniProt P49735 1-887; Q9XYU1 1-819; Q26454 1-866; Q9VGW6 1-733; Q9V461 1-817; Q9XYU0 1-720; Q9W0I7 1-202; Q9VQY9 1-203; Q9VBI1 1-228; O96989 1-575) (complex)
- percent of CMG particles in dimers [1]: 5%
- stoichiometry N [1]: 2

Molecule: B1
- binding result (Mcm5): binds
- binding result (Mcm2): binds

B2: Psf1 (natural protein, Drosophila melanogaster, UniProt Q9W0I7 1-202, looked up)
chain: MSRQTKMFGEKAFDLLKELERSSQTIPAFDDDGVRQVLEEIKAIFEENVAQASSYNASGDRSLWPLLNFRHAALQRNKRCLLAYLYERCRRIKALRWEFGPIIPGDIKQALCEPEVTFFNNYSKSLAAYMCSAGYNQGLPIDLTNNLRPPKSLYIEVRCMEDYGKFELDDGEVIHLKKNSQHYLPRAQVESLVRQGILHHIA
notes: Psf1, Drosophila melanogaster, subunit of GINS; the printed B-domain region 185-202 ends at the C-terminus; source: Hi5 cells, co-infection with baculoviruses; purified as part of the CMG (anti-FLAG agarose, Mono S, Mono Q) and in whole cell lysate
- binding result (Cdc45): binds
